“And” between values parts separate entries of the source, which are not always exact repeats. Equal values may be shown once.

This note sets out measurements from paper PMC2132824.

Holding throughout (assay): co-sedimentation
The target of assay [1] is rabbit skeletal muscle F-actin (rabbit) (UniProt P68135).
For assay [2], the target named is human platelet nonmuscle F-actin (human) (UniProt P60709).
In assay [3] the target is F-actin.

For orientation: Kd means the free concentration of one partner at which half of the binding sites on the other are occupied at equilibrium, for simple one-to-one binding. Regarding “recombinant full-length small espin (natural protein)”, the Kd in assay [1] was 150 nM; in assay [2], 50 nM. The stoichiometry N (actin monomers per espin) in assay [3] was 3 and 4.
